B1: TPR 5TU (parent)
chain: GGAUCUUCUCGAUCUAACAAAAAAGACAAAUCUGCCACAAAGCUUGAGAGCAUCUUCGGAUGCAGAGGCGGCAGCCUUCGGUGGCGCGAUAGCGCCAACGUUCUCAACUAUGACACGCAAAACGCGUGCUCCGUUGAAUGGAGUUUAUCAUG

Fewer inactive variants are shown than the library holds. Some results are limits rather than exact numbers.

Variants of B1 are the subject of the data set. Briefly: polymerase ribozyme fitness, log enrichment relative to wild type (log ratio); higher = more active; in vitro selection for triplet polymerase activity. The gist of the method:
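Fitness compares each genotype's enrichment to that of the wild type on a logarithmic scale, averaging replicates with inverse-variance weights. The logarithm is base 2. Enrichment came from Illumina sequencing of input and output libraries after one triplicate round of in vitro selection, which included frozen incubation at −7 °C, of PCR-built, transcribed mutant libraries of each subunit of a heterodimeric triplet polymerase ribozyme. Only genotypes with ≥10 input reads and ≥1 read per output were kept.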
Turning to A29G A30U C85A A107U C118G, the “polymerase ribozyme fitness (log ratio)” value was ≤ -4.2.

A29G A30C G86U A137U: the “polymerase ribozyme fitness (log ratio)” value was ≤ -4.2. As for A30G A121G, the figure is -3.36; as for A30G A121U, -3.39; as for A30G C54A C85G A120U C125U G136A, ≤ -4.2. Consider A30C C38A C54U A60G G84U G141A G143A, for which the “polymerase ribozyme fitness (log ratio)” value is ≤ -4.2. The value for A29G C131U was ≤ -4.2; that for A29U A39G C57G A66C C85G A91U was ≤ -4.2; that for A30G C57A was -2.9.

In the case of A30C G50C A66G G128U, the “polymerase ribozyme fitness (log ratio)” value was ≤ -4.2. For A30G A41U U135A A137U, the “polymerase ribozyme fitness (log ratio)” value is ≤ -4.2.

With A29G A52C C85A U90C C95G A97G C118A A138C G143U, the “polymerase ribozyme fitness (log ratio)” value is ≤ -4.2. With A29U G48A C87G A121G G141C G152U, the “polymerase ribozyme fitness (log ratio)” value was ≤ -4.2. As for A29C G92A G143C U146C, the figure is ≤ -4.2; as for A29G G94U A97G C149U, ≤ -4.2. For A30G C43G G83A, the “polymerase ribozyme fitness (log ratio)” value was ≤ -4.2. For the variant A30C A142C U144C, the “polymerase ribozyme fitness (log ratio)” value is ≤ -4.2.

As for A29G C96A, the “polymerase ribozyme fitness (log ratio)” value was -3.46. In the case of A30U U45A G50C C79G G83C G126C, the “polymerase ribozyme fitness (log ratio)” value was ≤ -4.2. As for A29U G50U C116U A147U, the figure is -4.04. As for A30G C87U A110U C131A G136U G141U, the figure is ≤ -4.2. As for A30U G71C C95A, the figure is ≤ -4.2; as for A29G A41C, -3.63; as for A29G A47C U55G, ≤ -4.2. Take A29U G68A G83A C103G: the “polymerase ribozyme fitness (log ratio)” value is ≤ -4.2. As for A30G C32G U56A C57G G86U A142G, the figure is ≤ -4.2.

As to A29G U33C G141A U145A, the “polymerase ribozyme fitness (log ratio)” value is ≤ -4.2. The value for A29U G94U C149G was ≤ -4.2; that for A30G G42A was ≤ -4.2; that for A30U A52C U90C C93U C95U C96U A106G was ≤ -4.2. For A29G C51G U56A C93A C95G C149G G152A, the “polymerase ribozyme fitness (log ratio)” value was ≤ -4.2.

Regarding A30C C79A G88A A107G C116G A137G U144C, the “polymerase ribozyme fitness (log ratio)” value is ≤ -4.2. The value for A30U G58C U90G C95A was ≤ -4.2; that for A30G A91U A137G G141U was ≤ -4.2. As for A30G G74U C95A U148G, the “polymerase ribozyme fitness (log ratio)” value is ≤ -4.2. As for A30U A37C G50C A91G A150G, the figure is ≤ -4.2. The value for A29U G34C G48C G80A U82A C105A A115G U151A was ≤ -4.2; that for A29U G70U G71A C87U U90A A106U was ≤ -4.2. As for A29C U33C U44A G80U C85U C93U G136U, the figure is ≤ -4.2; as for A30U C35U G68U A120U, ≤ -4.2. As for A30U A49G A52G G58C U78A A110U C123U A142C, the “polymerase ribozyme fitness (log ratio)” value was ≤ -4.2. The value for A30G A64G G136C was -4.07; that for A29C G50U G81A C95A G133U was ≤ -4.2. In the case of A30C C76A G83C, the “polymerase ribozyme fitness (log ratio)” value is ≤ -4.2.

Take A30G A47C G48A: the “polymerase ribozyme fitness (log ratio)” value is ≤ -4.2. The value for A29U C96U was -3.19; that for A30G C35U U56G A66G U82G C99U A119U G126A A142C was ≤ -4.2. For the variant A30G U77C G84C G86U U102A C118U, the “polymerase ribozyme fitness (log ratio)” value is ≤ -4.2. With A30G G48U G86U C149U, the “polymerase ribozyme fitness (log ratio)” value is ≤ -4.2. For A30U C95U, the “polymerase ribozyme fitness (log ratio)” value was -3.31.

Turning to A30U C95G, the “polymerase ribozyme fitness (log ratio)” value was -3.94. As to A30G G48A G80U G88U U109C, the “polymerase ribozyme fitness (log ratio)” value was ≤ -4.2.

As to A29U C76G G84U C96A A122U U144A, the “polymerase ribozyme fitness (log ratio)” value is ≤ -4.2. Regarding A29U A66U C96U, the “polymerase ribozyme fitness (log ratio)” value was ≤ -4.2. As for A29G A60G G92C C116G A121G, the figure is ≤ -4.2; as for A29U A107C, ≤ -4.2. The value for A30G G58U C118U was -3.95. As for A30C C57U G59C U82A G117A A138C, the figure is ≤ -4.2. Regarding A30G C54G A121U U139A U145C, the “polymerase ribozyme fitness (log ratio)” value was ≤ -4.2. The value for A30C U53A G84A was ≤ -4.2. The value for A30U A52G U53A U146G was ≤ -4.2; that for A30U A52U U78A was ≤ -4.2. Turning to A29C G59U G92C C96A A107G C125U U127G, the “polymerase ribozyme fitness (log ratio)” value is ≤ -4.2.

Consider A30U C54A C76A C87G G92A G143C, for which the “polymerase ribozyme fitness (log ratio)” value is ≤ -4.2.

As for A29U A39U U55A C79A C93G, the “polymerase ribozyme fitness (log ratio)” value is ≤ -4.2. In the case of A29U G46A U61A U78G C87G A89C G124U U148G, the “polymerase ribozyme fitness (log ratio)” value was ≤ -4.2. As for A29U C51A G94A, the figure is ≤ -4.2. As for A30U U33C A138G, the figure is ≤ -4.2.

Consider A30C C57G C63U G65U C96U A97U, for which the “polymerase ribozyme fitness (log ratio)” value was ≤ -4.2. The value for A30G A150U was -2.97; that for A29U U33C A52C G86A was ≤ -4.2. On to A30G G86C A147C, for which the “polymerase ribozyme fitness (log ratio)” value was ≤ -4.2. As for A30C G48C G50U A98G A107G C118U A120C G141U, the figure is ≤ -4.2; as for A29U C87U A122U U145C, -3.85; as for A29G G59U A60U C114U, ≤ -4.2.

For A29U A49C C63U C116U G133C U139A U146A, the “polymerase ribozyme fitness (log ratio)” value is ≤ -4.2. As for A30G C38U A73U U78G C87G C105G, the figure is ≤ -4.2; as for A30C U33A G68U A73U C95A C114A A121G, ≤ -4.2; as for A30G A40G U45G C79G A89C G94U U145A, ≤ -4.2. As for A29C G58A C87G C93G G133A U145C, the figure is ≤ -4.2; as for A29U U31G A47C U61A G81A C95U G100U, ≤ -4.2; as for A30C U44G C108G U145G, ≤ -4.2.

Consider A30G A39C U55G U82C G136U, for which the “polymerase ribozyme fitness (log ratio)” value was ≤ -4.2. The value for A29G C76U G92A C123G G143U was ≤ -4.2.

The record behind these values is the RNAGym collection of RNA variant scans (doi:10.1073/pnas.2313332121).
